{
  "source": "patent US20250066490A1",
  "about": "“ANTI-CD70 ANTIBODIES, CONJUGATES THEREOF AND METHODS OF USING THE SAME” (ProfoundBio US Co., priority 2021, published 2025)",
  "key": {"[1]": {"test_system": "cynomolgus CD70 recombinant protein", "test": "Antibody binding ELISA, cynomolgus CD70", "settings": "full IgG, FIG. 3", "experimental": "The binding specificity of the CD70 antibodies was tested by ELISA according to a standard protocol. Briefly, 96-well micro-plates were coated with 2 μg/ml of human or cynomolgus CD70 recombinant protein in PBS at 100 μl per well and incubated overnight at 4° C. The plates were washed twice with TBS+0.5% Tween20. 200 μL of blocking buffer (2% BSA in PBS) was added to each well, and the plates were incubated at 37° C. for 2 hours. The plates were washed using the wash buffer mentioned above. Serially diluted antibodies were added to the ELISA plates using 100 μl per well, and the plates were incubated for 1 hour at room temperature. Then plates were washed 3 times. HRP conjugated anti-human Fc antibody solution (Sigma, I18885-2ML, diluted with blocking buffer) was added to the plates using 100 μl per well. The plates were incubated at room temperature for 1 hour and then washed 3 times. Then the TMB solution was added to plates using 100 μl per well and the plates were placed at RT for 5-15 mins. Then the stop solution (2M H2SO4) was added using 50 μl per well. The absorbance was measured at A450 and A630."}, "[2]": {"test_system": "CD70-negative cell line, MCF-7", "test": "2E7 binding by flow cytometry, MCF-7", "settings": "FIG. 12", "experimental": "Binding activity of 2E7 or the isotype control with a target cell line (Raji) or a cell line (MCF-7) that has negligible level of CD70 expression were evaluated by flow cytometry (Beckman, Cytoflex). 3×10^5 cells per well were seeded on a 96-well V-bottomed plate and incubated with 100 μl of 2E7 in serial dilutions. After 30 min incubation at 4° C., cells were washed twice with PBS, stained with 100 μl of 1:200 diluted PE-conjugated anti-human Fc in FACS buffer (1×PBS containing 1% BSA), then incubated at 4° C. for 30 min. Cells were finally washed two times with PBS and analyzed by flow cytometric analysis."}, "[3]": {"test_system": "786-O, Caki-1, U251 and DBTRG-05MG cells", "test": "Antibody binding by flow cytometry, statements across all four tumor cell lines", "design": "species or system human", "settings": "range over the four cell lines", "experimental": "The lead antibodies were tested for binding to renal carcinoma cells and glioblastoma cells expressing CD70 on the cell surface by flow cytometry. Cell lines 786-O (ATCC® CRL-1932™, provided by COBIOER), Caki-1 (ATCC® HTB-46™, provided by COBIOER), U251 and DBTRG-05MG (ATCC® CRL-2020™, provided by COBIOER) were each tested for antibody binding. 786-O cells were cultured with RPMI 1640 medium (Gibco, Cat #11875093) containing of 10% FBS (Gibco, Cat #10099141) while Caki-1 cells were cultured with McCoy's 5a Modified medium (Gibco, Cat #16600082) containing 10% FBS. U251 cells were cultured with MEM medium containing of 10% FBS and 1% NEAA+1 mM sodium pyruvate. DBTRG-05MG cells were cultured with DMEM medium (Gibco, Cat #C11995500BT) containing of 10% FBS. Each of the lead antibodies and the controls were incubated for 30 mins with the different cell lines (3×10^5 cells per well) in 0.2 ml FACS buffer (1×PBS with 0.1% BSA) at 4° C. Then, the cells were pelleted, washed, and incubated at 4° C. for 30 mins with 100 μl of 1:200 diluted PE-conjugated anti human Fc (Abcam, Ab98596) in FACS buffer. The cells were pelleted again, washed with PBS, resuspended in FACS buffer and analyzed by flow cytometer (Beckman, CytoFLEX)."}, "[4]": {"test_system": "CD70-negative cell line (MCF-7)", "test": "Internalization time course, MCF-7", "format": "cell-based", "settings": "MCF-7, up to 4 hr, FIG. 13", "experimental": "Four cell lines ([…]), Caki-1, Raji, MCF-7) were utilized in the internalization assay. Target (CD70) copy numbers were determined via the QIFIKIT (DAKO, K0078). Briefly, cells were labeled with a primary mouse monoclonal antibody against CD70. Cells, Set-up beads, Calibration beads (from the kit) were then labeled in parallel with a fluorescein-conjugated anti-mouse secondary antibody. The fluorescence is correlated with the number of bound primary antibody molecules on the cells and on the beads. Samples were subsequently analyzed on the flow cytometer and copy number determined based on the calibration curve (Table 11). For internalization assay, 3×10^5 cells were incubated at 4° C. for 30 min with 10 µg/ml 2E7 in FACS buffer (1×PBS containing 0.1% BSA). Cells were washed at 4° C. to remove unbound material and kept on ice or shifted to 37° C. for different lengths of time. At progressive timepoints ([…], 0.5, 1, 2, 3, 4 hr) cells were stained with PE-conjugated anti-human Fc for 30 min at 4° C. and analyzed by flow cytometry. Internalization rate were calculated by subtracting the mean fluorescence intensity (MFI) of cell surface-bound antibody at 37° C. at each time point from the MFI of cell surface-bound antibody at 4° C. at time 0, then divided by the MFI of the cell surface-bound antibody at 4° C. at time 0."}, "CD70 ECD": {"target": "T1, CD70 ECD (Homo sapiens, UniProt P32970)", "T1 sequence (P32970 39-193 limits assumed)": "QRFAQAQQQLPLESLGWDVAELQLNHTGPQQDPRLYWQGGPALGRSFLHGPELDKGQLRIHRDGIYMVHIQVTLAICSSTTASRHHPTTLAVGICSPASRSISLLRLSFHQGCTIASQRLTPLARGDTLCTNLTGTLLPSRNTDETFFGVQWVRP", "test": "Biacore affinity measurement on immobilized CD70 ECD", "format": "binding", "experimental": "The immobilization of antigen CD70 ECD was performed at 25° C. with HBS-EP as the running buffer. Sensor chip surface of flow cells 1, 4 were activated by freshly mixed 50 mmol/L N-Hydroxy succinimide (NHS) and 200 mmol/L 1-ethyl-3-(3-dimethylaminopropyl) carbodiimide hydrochloride (EDC) for 420s (10 μL/min). Afterwards, CD70 antigen diluted in 10 mmol/L NaAC (pH 4.5) was injected into flow cell 4 to achieve conjugation of the appropriate Response Unit, while flow cell 1 was set as a blank. After the amine coupling reaction, the remaining active coupling sites on chip surface were blocked by 420s injection of 1 mol/L ethanolamine hydrochloride.\nThe assay was performed at 25° C. and the running buffer was HBS-EP. Diluted antibodies were injected over the surface of flow cells 1 and 4 during the association phase, followed by injecting running buffer as the dissociation phase. All the data were processed using Biacore T200 Evaluation software version 3.1. Flow cell 1 and a blank injection of buffer in each cycle were used as a double reference for Response Units subtraction. Kinetic data of the interaction between the antibodies and CD70 antigen were obtained through affinity measurement."}, "cyno CD70 ECD": {"test_system": "cyno CD70 ECD", "test": "Biolayer interferometry (BLI), cyno CD70", "format": "binding"}},
  "data": [
    {"molecule": "2E7: anti-CD70 antibody clone, VH SEQ 7 and VL SEQ 8; tested as scFv and full human IgG1/kappa (antibody, V domains shown, Synthetic 2E7 VH amino acid sequence; Synthetic 2E7 VL amino acid sequence, tested as scFv and full human IgG1/kappa) VH: QVQLQESGPGLVKPSETLSLTCTVSGGSVSSDYYYWSWIRQPPGKGLEWLGYIYYSGSTNYNPSLKSRVTISVDTSKNQFSLKLRSVTTADTAVYYCARGDGDFLGVCFDYWGQGTLVTVSS VL: EIVLTQSPATLSLSPGERATLSCRASQSVSSYLAWYQQKPGQAPRLLIFDASNRATGIPARFSGSGSGTDFTLTISSLEPEDFAVYYCQQRSNWPLTFGGGTKVEIK", "values": [
      {"measurement": "cross binding activity to the cyno-antigen", "setting": "[1]", "value": "better cross binding activity to the cyno-antigen than antibody 69A7"},
      {"measurement": "binding to MCF-7", "setting": "[2]", "value": "no binding"},
      {"measurement": "EC50 relative to that of antibody 69A7", "setting": "[3]", "value": "1.8˜3.5 times"},
      {"measurement": "internalization, time course", "setting": "[4]", "value": "no internalization"},
      {"measurement": "affinity to CD70 antigen, fold greater than the reference antibody h1F6", "setting": "CD70 ECD", "value": "2-3 fold"},
      {"measurement": "Rmax (RU)", "setting": "CD70 ECD; 25° C., CD70 immobilized", "value": 32.94, "unit": "RU"},
      {"measurement": "ka", "setting": "CD70 ECD; 25° C., CD70 immobilized", "value": 75400, "unit": "M⁻¹ s⁻¹"},
      {"measurement": "kd", "setting": "CD70 ECD; 25° C., CD70 immobilized", "value": 0.00106, "unit": "s⁻¹"},
      {"measurement": "Response", "setting": "cyno CD70 ECD; CYNO CD70 3.13 nM", "value": 0.1275},
      {"measurement": "Response", "setting": "cyno CD70 ECD; CYNO CD70 6.25 nM", "value": 0.204},
      {"measurement": "Response", "setting": "cyno CD70 ECD; CYNO CD70 12.5 nM", "value": 0.2927},
      {"measurement": "Response", "setting": "cyno CD70 ECD; CYNO CD70 25 nM", "value": 0.3702},
      {"measurement": "Response", "setting": "cyno CD70 ECD; CYNO CD70 50 nM", "value": 0.4136},
      {"measurement": "Response", "setting": "cyno CD70 ECD; CYNO CD70 100 nM", "value": 0.4825},
      {"measurement": "Response", "setting": "cyno CD70 ECD; CYNO CD70 200 nM", "value": 0.4991},
      {"measurement": "ka", "setting": "cyno CD70 ECD; CYNO CD70, multiple dilutions 200-3.13 nM, global fit", "value": 617800, "unit": "M⁻¹ s⁻¹"}
    ]}
  ]
}
